Measurements published in the supplement of paper PMC12764529.

Assay: folding stability dG unfold (combined trypsin and chymotrypsin); higher = more stable
Procedure: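 Folding stability of de novo designed mini-proteins (<80 aa, no Cys; designed by TrROS, TrMRF, ProteinMPNN and the joint model) was measured by cDNA display proteolysis with trypsin and chymotrypsin. Each protease was used at 11 concentrations in a threefold dilution series plus a no-protease condition. K50 was inferred by Bayesian fitting of sequencing counts, and dG unfold was derived against a sequence-predicted unfolded-state K50 (Tsuboyama et al. method). Sequences shown include variable-length N-terminal GS-type padding (SAGGSAGG...) inside a display construct carrying a PA tag. Rows were kept only if the AF2 dimer inter-PAE was >15, to exclude likely homo-oligomers.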

Folding stability dG unfold, < -1 kcal/mol:
SAGGSAGGSAKIKVEWEQHPEGYNLVKVEIPNPDNGKKKKVEGPFDSLEDAEDEAKELLKKSAGGSAGGSAG [r3_174_TrROS]
SAGGSMTPAELANEIAEKLHEELPPDKSVTITMRFGSGPVTLTIPPDARVDVPEDRPLEVDEISIGSAGGSA [r2_391_JUSTAS]
SAGGSAGGSAGTIRNPGMEFTIKKDPNDKVVVKMNDQERTIRVGKPIYFPGGMPFRIEPASAGGSAGGSAGG [r11_147_TrROS]
SAGGSAASRVSVEKLPNGTVVTPVEVEVTTYKPYPSYDGTPTTVPVTTRTTRTVTTEGNVVTTEVASAGGSA [r15_883_JUSTAS]
SAGGTIKEIFEKNGAEIETNPGQGVVTVEMRKPKRDDNGMPKPKPKGKHEIKVPGGDPEQALDNLLKHSAGG [r13_924_TrROS]
SAGGSAGGSAGGGSSMPLIPRKIETVEKPFRLPNGDVVIETTEIDTDADVEIPSVEVVLKSAGGSAGGSAGG [r7_213_JUSTAS]
SAGGSEEEKAAKEAAEKELPPAEPKPVLTPDGVVTTYYPVTGAVEVTRYERDAAGVPVKVSSTTDPKSAGGS [r16_243_JUSTAS]
SANKFSPEEYAEWMIRTARRQVKENRQQGDPEKPKKVTIHFWEEHFPPYRKRIKKEAKEDGLPVEIEPPSAG [r14_908_TrROS]
SAGGSAGGSAGGGKNRPVIPITEGDKDEAKEFADTFQKEWRRQNGEPAQNVDIDIVPTPSAGGSAGGSAGGS [r10_1216_TrROS]
SAMVKTKDGKELEITRKAKPDELTEEEIKALAEEEVKKLVPEDLEVEVEVEISREPDGTYVVSVPVKKKSAG [r14_389_JUSTAS]
SAGGSAGGSAASNGPLPVPLPETVIEAPLDEVPDEEIRARLPEELAEEFLRRMPPDATVLLSAGGSAGGSAG [r3_326_JUSTAS]
SAGGVSIEKDVTSSDELLAALPPDRPVRIEYTPPDGSSRELEVDPADLSLDIPAGVKYKVRIEVLPPESAGG [r13_461_JUSTAS]
SAGGSAGGSAGKIRIDARPNGNWRAHYPGGKEHEFNSPDDIKDELEKKFPNFDIIEIEPWSAGGSAGGSAGG [r11_806_TrROS]
SAGSELLEKFPNVKVEEYEEEIEFSPEKKEEKEEVDETDGNTITYKKIEVLPEGKAKVKIYTAKLPEVSAGG [r19_125_JUSTAS]
SAGGSAGGSAGGSQNEVQIPFNNMPPQQARNIADEALDKNKDIENIEVERDDGMFKVKVSAGGSAGGSAGGS [r4_330_TrROS]
KVPAGVEDVKVVKGPLTVKITAPVKNPNVPIKVGNKDGKVVSEKWKVDKAAGKVTVEVPVKKANEVTFNPES [r1_138_TrMRF]
SDDDFADSPEAKKNMENMKPVPPPPTITINVKGDDPEDALDDIREHFPGLDPSNIKSVETTDGTLTITFQSA [r9_723_TrROS]
SAGGSAGGMITDADGNAFEVASAEPFELANGEPVIRFRFKGSGEIRTVPAADIPDGIPEEAKFESAGGSAGG [r6_370_TrMRF]
SAGGMKTVVTTEPATFDATDPNTGVPIGTVTIGPVVTTKPPNAVTTHYTFRIGGTEVATSTTTNPGLASAGG [r13_758_JUSTAS]
SAGGSAGGSAGGGPMVTRTIPRGVVVTKAELKDDKPVKYTVVKEEPVPVTVRALPEELLSAGGSAGGSAGGS [r10_492_JUSTAS]
SAGGSAGGSAGPDDFVTLTETIVEEIDPNLAELPPEVAERLVKEGVKVIEKVLTKVAPPSLLSAGGSAGGSA [r18_127_JUSTAS]
SAGGSAGGSAGGTIKELAKEAAKKNPGWVPIRIPLPNGNPWKIRVQVDEPGKNRIEIEPSAGGSAGGSAGGS [r10_395_TrROS]
SAGGSAGGSAGGPPPEKAAAYLVKYRNPDGGPLGTRPVELPPDRPEVEHDPSFVSVEVASAGGSAGGSAGGS [r10_675_JUSTAS]
SAGGSAGGSAGGGKVYVFRAPDALVLVPVEENPDTDEFTVTVDPGGDDPDIAKKLAEALSAGGSAGGSAGGS [r10_582_TrMRF]
SAGGMVVELPSGLSPEELERAAEEIAAELPRRGVDPVEVTIEPVREVAPPDGPPVRLYRITIDTVPPSAGGS [r16_266_JUSTAS]
SAGGSAGGSAGPPFEVVGVSRHGDSVTVLARNPDSDELVASTFTNGVIGSTAVIPSEEVGSAGGSAGGSAGG [r11_19_TrMRF]
SAGGSAGGSMPVTRPVATLPGPVTLYETTSPGERRLVRVTETPLPTPEPRTEVRLTVEVRPVGSAGGSAGGS [r12_353_JUSTAS]
SVVTPYPDGTVVETEPVGDTVLRLVRRPRPLPGGEPVERTTVVLEPVSTRPLPNGELVTERPVLEEEHHHSA [r9_235_JUSTAS]
SAGGSAGGPPVVTKTDPNTGAVYTKVGDTWTSTPVPPPVVVRPVPLYDPDGRPLATGYTVLRLESAGGSAGG [r6_313_JUSTAS]
SPEGKDEKGVSYPIIVEKPDPKITPEKIKKAIEEAGGKVTKIVRPKKGKLLVVDVEVTDPEKAIEAIKKDSA [r9_1154_TrMRF]
SAGGSASSIPPGKILSKKEFEVELPDGKKLKITILEVPGPTLALTEEPGEKKPKTYKVEELKKLLESAGGSA [r15_329_JUSTAS]
SAGGSAEKPIPFGNYQIRIHEIDPKEGKITIHVPDNMPPNMKEQARDWLQERGLPIEVEPVPAEDISAGGSA [r15_570_TrROS]
SAGGSAGGSAGSMTVLEEEEIELPDDVVLTRLKVPGEELIRIEIPEEGKEEIIPASEWPGSAGGSAGGSAGG [r17_286_JUSTAS]
SAGGSAGGSAGPKPVMWRIEFDNPDNGQKQEITIMIPPDDPEQAEEIAKKIGPNVKIEPVSAGGSAGGSAGG [r11_250_TrROS]
SAGGSAGGSAGGPIKIDVQVMPHDNEWYIMIRREYPYPDGKRQEREIMIPADNVKDLDDISAGGSAGGSAGG [r7_835_TrROS]
SAGGSAGGSAGGPPFQIHIRDKGEERTIPVDSPDDIKELLEEKGAEIKDVHPNSGTITVKSAGGSAGGSAGG [r7_726_TrROS]
SAGGSAGGSAGGSTPSGTLKEVSEEVEPDGIRITTTTYSLPNPGVFKTVVTVEPEAREESAGGSAGGSAGGS [r4_163_JUSTAS]
SAGGSAGGSAGGSMVAYITTKGKKLEIEVPEDLPEEIKEELKKKGIPIESITFEEVEPESAGGSAGGSAGGS [r10_405_JUSTAS]
SAGGSAGGSAGGPTVTYKPPSGNVRTVEVPASRPEVVAELKAAGGEVVVVDAETGEEVLLSAGGSAGGSAGG [r7_430_JUSTAS]
SAGGSAGGSAGGMVSISVSEDPATGTYTVTATRTGAPRTVTVPVGASEAEARARVEAALSAGGSAGGSAGGS [r10_192_JUSTAS]
SAGGSAGGSAAPVSEREVTLTGSGTPRVVPVRVLGEAASPSESIATEATLPDGRPLRLTLRESAGGSAGGSA [r18_54_JUSTAS]
SAGGVDLSTLPSNSTVTLTEEKVIPVTKGSPKGSGKGYIETTTTTYTAVPPTGTWLSTTTPSISIIESAGGS [r8_486_JUSTAS]
SAGGSAGGSAGGSPMLLVRVKKTNKWISLEEALEEAEKKGEEIEIEEVEVVELPPGQEPSAGGSAGGSAGGS [r4_479_TrROS_Hall]
SAGGSAFFRIKVEKNNGKKREIMFPIPENHDPSEAREMVKELAKNIARKQGHPNVPIKVTDIEPFPSAGGSA [r15_463_TrROS]
SAGGSAGGEKPLKVTIKVKEKRLTENGIPEEFEKEIVVEAPLEEATKLVKAIPKDKVVSVEVEGSAGGSAGG [r6_984_TrMRF]
SAGGSAGGSMVVTTTEFDLNGVKATLSIDDTGSATAKIPDPSYKEDVLKLIPSSFSLTSFDAESAGGSAGGS [r12_9_JUSTAS]
SAGGSAGGSAPMRMIPFRLPAPPGETIEIKFPNGKKHNISVEPHPDGWFHIMVNGGMIWIPASAGGSAGGSA [r18_372_TrROS]
SAGGSAGGSAGGSPFTIRNPNGMQVRIDDFDPEEGKVKIEIEMPNKPVEYPIPLDDIIFSAGGSAGGSAGGS [r4_110_TrROS]
SAGGMTSEVIETTEEEPERLIKKTFKVTYDENGTPKPELLKVETSPVPEEEIDPSNAPKEKAEKLGLLSAGG [r13_964_JUSTAS]
SAGGSAGGSAGKKIEIDEANPEENMYRISFPDKRTHQFDSAEDLKEQIPPGIPVEIEPLKSAGGSAGGSAGG [r17_295_TrROS]
SAGGMTLEEVRALAQRVSREPLPGGGSRWVVTFPRPVPGGPAAPVTREIPVPADRPDATEEEVLARLVSAGG [r13_319_JUSTAS]
SAGGSAGGSAGGKIEVDVETERHDGRPYYEVEIRHPDNGKPVEIPMPMNNPEEALKAAKSAGGSAGGSAGGS [r10_271_TrROS]
SAGGGWEKIPITPNDKNQAKEIADEFADKLQQDPGIPKEVEIDVQPPPNNQYWIEVEYPGKKLEIPISAGGS [r16_356_TrROS]
SAGGSAGGSAKKIEIDPERDPNGMHLVEVTRRDPGNGKKKDIPFNVNPGKMTPEEIKDLAKSAGGSAGGSAG [r3_127_TrROS]
SAGGSAGGSAGWIKEALRDMPPGKPRRIPIRNPDGNPIKIRIKVDRDPENGKYEVPIEIVSAGGSAGGSAGG [r11_343_TrROS]
SAGGMIVLEFTDPSELEKLEEKVEEIKEELIKEGIKPPNVEIKVTRTTRKLPNGTERYTAPVSIKLPSAGGS [r16_591_JUSTAS]
SAGGSAGGSAVLRSALDRPVPVLLLTVPRDEVPEEEIRSLLPPELAEQFLKTAPKDSVIVASAGGSAGGSAG [r3_326_TrMRF]
